Source: the Human Domainome abundance scans (Beltran et al. 2025)
± gives the uncertainty stated by the source.

B1: Homeobox protein cut-like 1, residues 548 to 629; numbered along this chain, P39880 (parent)
chain: GEEMDTAEIARQVKEQLIKHNIGQRIFGHYVLGLSQGSVSEILARPKPWNKLTVRGKEPFHKMKQFLSDEQNILALRSIQGR

Variants of: B1
Assay: abundance fitness (aPCA) (normalised: wild type 0, dead -1); higher = more abundant; growth selection in yeast, the domain comes from the species named
Conditions: Homo sapiens

| Variant | abundance fitness |
| --- | --- |
| GEEMDTAEIARQVKEQLIKHNIGQRIFGHYVLGLSQGSVSEILARPKPLNKLTVRGKEPFHKMKQFLSDEQNILALRSIQGR [W49L] | -0.506 ± 0.23 |
| GEEMDTAEIARQVKEQLIKHNIGQRIFGHYVLGLSQGSVSEILARPKPRNKLTVRGKEPFHKMKQFLSDEQNILALRSIQGR [W49R] | -0.574 ± 0.16 |
| GEEMDTAEIARQVKEQLIKHNIGQRIFGHYVLGLSQGSVSEILARPKPTNKLTVRGKEPFHKMKQFLSDEQNILALRSIQGR [W49T] | -0.509 ± 0.31 |
| GEEMDTAEIARQVKEQLIKHNIGQRIFGHYVLGLSQGSVSEILARPKPVNKLTVRGKEPFHKMKQFLSDEQNILALRSIQGR [W49V] | -0.529 ± 0.14 |
| GEEMDTAEIARQVKEQLIKHNIGQRIFGHYVLGLSQGSVSEILARPKPENKLTVRGKEPFHKMKQFLSDEQNILALRSIQGR [W49E] | -0.273 ± 0.26 |
| GEEMDTAEIARQVKEQLIKHNIGQRIFGHYVLGLSQGSVSEILARPKPANKLTVRGKEPFHKMKQFLSDEQNILALRSIQGR [W49A] | -0.202 ± 0.14 |
| GEEMDTAEIARQVKEQLIKHNIGQRIFGHYVLGLSQGSVSEILARPKPSNKLTVRGKEPFHKMKQFLSDEQNILALRSIQGR [W49S] | -0.477 ± 0.22 |
| GEEMDTAEIARQVKEQLIKHNIGQRIFGHYVLGLSQGSVSEILARPMPWNKLTVRGKEPFHKMKQFLSDEQNILALRSIQGR [K47M] | -0.06 ± 0.035 |
| GEEMDTAEIARQVKEQLIKHNIGQRIFGHYVLGLSQGSVSEILARPGPWNKLTVRGKEPFHKMKQFLSDEQNILALRSIQGR [K47G] | -0.288 ± 0.025 |
| GEEMDTAEIARQVKEQLIKHNIGQRIFGHYVLGLSQGSVSEILARPIPWNKLTVRGKEPFHKMKQFLSDEQNILALRSIQGR [K47I] | -0.086 ± 0.058 |
| GEEMDTAEIARQVKEQLIKHNIGQRIFGHYVLGLSQGSVSEILARPSPWNKLTVRGKEPFHKMKQFLSDEQNILALRSIQGR [K47S] | -0.126 ± 0.034 |
| GEEMDTAEIARQVKEQLIKHNIGQRIFGHYVLGLSQGSVSEILARPRPWNKLTVRGKEPFHKMKQFLSDEQNILALRSIQGR [K47R] | -0.072 ± 0.025 |
| GEEMDTAEIARQVKEQLIKHNIGQRIFGHYVLGLSQGSVSEILARPQPWNKLTVRGKEPFHKMKQFLSDEQNILALRSIQGR [K47Q] | 0.03 ± 0.035 |
| GEEMDTAEIARQVKEQLIKHNIGQRIFGHYVLGLSQGSVSEILARPHPWNKLTVRGKEPFHKMKQFLSDEQNILALRSIQGR [K47H] | -0.276 ± 0.068 |
| GEEMDTAEIARQVKEQLIKHNIGQRIFGHYVLGLSQGSVSEILARPLPWNKLTVRGKEPFHKMKQFLSDEQNILALRSIQGR [K47L] | 0.028 ± 0.028 |
| GEEMDTAEIARQVKEQLIKHNIGQRIFGHYVLGLSQGSVSEILARPYPWNKLTVRGKEPFHKMKQFLSDEQNILALRSIQGR [K47Y] | -0.432 ± 0.082 |
| GEEMDTAEIARQVKEQLIKHNIGQRIFGHYVLGLSQGSVSEILARPVPWNKLTVRGKEPFHKMKQFLSDEQNILALRSIQGR [K47V] | -0.015 ± 0.028 |

| Variant | abundance fitness |
| --- | --- |
| GEEMDTAEIARQVKEQLIKHNIGQRIFGHYVLGLSQGSVSEILARPWPWNKLTVRGKEPFHKMKQFLSDEQNILALRSIQGR [K47W] | -0.329 ± 0.033 |
| GEEMDTAEIARQVKEQLIKHNIGQRIFGHYVLGLSQGSVSEILARPTPWNKLTVRGKEPFHKMKQFLSDEQNILALRSIQGR [K47T] | -0.019 ± 0.033 |
| GEEMDTAEIARQVKEQLIKHNIGQRIFGHYVLGLSQGSVSEILARPNPWNKLTVRGKEPFHKMKQFLSDEQNILALRSIQGR [K47N] | -0.339 ± 0.06 |
| GEEMDTAEIARQVKEQLIKHNIGQRIFGHYVLGLSQGSVSEILARPKPWFKLTVRGKEPFHKMKQFLSDEQNILALRSIQGR [N50F] | -0.265 ± 0.13 |
| GEEMDTAEIARQVKEQLIKHNIGQRIFGHYVLGLSQGSVSEILARPKPWMKLTVRGKEPFHKMKQFLSDEQNILALRSIQGR [N50M] | -0.23 ± 0.11 |
| GEEMDTAEIARQVKEQLIKHNIGQRIFGHYVLGLSQGSVSEILARPKPWHKLTVRGKEPFHKMKQFLSDEQNILALRSIQGR [N50H] | -0.074 ± 0.098 |
| GEEMDTAEIARQVKEQLIKHNIGQRIFGHYVLGLSQGSVSEILARPKPWRKLTVRGKEPFHKMKQFLSDEQNILALRSIQGR [N50R] | -0.04 ± 0.066 |
| GEEMDTAEIARQVKEQLIKHNIGQRIFGHYVLGLSQGSVSEILARPKPWPKLTVRGKEPFHKMKQFLSDEQNILALRSIQGR [N50P] | -0.003 ± 0.14 |
| GEEMDTAEIARQVKEQLIKHNIGQRIFGHYVLGLSQGSVSEILARPKPWKKLTVRGKEPFHKMKQFLSDEQNILALRSIQGR [N50K] | -0.093 ± 0.076 |
| GEEMDTAEIARQVKEQLIKHNIGQRIFGHYVLGLSQGSVSEILARPKPWWKLTVRGKEPFHKMKQFLSDEQNILALRSIQGR [N50W] | -0.151 ± 0.085 |
| GEEMDTAEIARQVKEQLIKHNIGQRIFGHYVLGLSQGSVSEILARPKPWTKLTVRGKEPFHKMKQFLSDEQNILALRSIQGR [N50T] | -0.16 ± 0.067 |
| GEEMDTAEIARQVKEQLIKHNIGQRIFGHYVLGLSQGSVSEILARPKPWYKLTVRGKEPFHKMKQFLSDEQNILALRSIQGR [N50Y] | -0.165 ± 0.13 |
| GEEMDTAEIARQVKEQLIKHNIGQRIFGHYVLGLSQGSVSEILARPKPWAKLTVRGKEPFHKMKQFLSDEQNILALRSIQGR [N50A] | -0.062 ± 0.072 |
| GEEMDTAEIARQVKEQLIKHNIGQRIFGHYVLGLSQGSVSEILARPKPWCKLTVRGKEPFHKMKQFLSDEQNILALRSIQGR [N50C] | 0.064 ± 0.14 |
| GEEMDTAEIARQVKEQLIKHNIGQRIFGHYVLGLSQGSVSEILARPKPWQKLTVRGKEPFHKMKQFLSDEQNILALRSIQGR [N50Q] | -0.057 ± 0.13 |
| GEEMDTAEIARQVKEQLIKHNIGQRIFGHYVLGLSQGSVSEILARPKPWGKLTVRGKEPFHKMKQFLSDEQNILALRSIQGR [N50G] | -0.129 ± 0.084 |
